Data reported in PMC8917853, “Synthesis and evaluation of ^99mTc-DOTA-ARA-290 as potential SPECT tracer for targeting cardiac ischemic region” (Iranian Journal of Basic Medical Sciences, 2021).
Residues, ends and D or L forms follow the SMILES beside them. *: point of attachment. DOTA = O=C(O)CN1CCN(CC(=O)O)CCN(CC(=O)*)CCN(CC(=O)O)CC1; X1 = CN(C)c1ccc(/N=N/c2ccc(C(=O)*)cc2)cc1

Assays:
in vivo = assay: in vivo
Experimental: To study ischemia-induced myocardial injuries, male Wistar rats weighing 200~250 gr were sorted into three groups of four (n=4): (1) normal group, (2) Ischemic group, and (3) sham group. The rats were anesthetized by intraperitoneal (IP) administration of 3 % pentobarbital sodium (60 mg/kg). Positive pressure mechanical ventilation was made by a Shinano respirator (SN-480–4) and an open-heart operation was done at the level of the left 4th–5th ribs. The rats received intramuscular injections of penicillin sodium (0.8 mg/g) to prevent infection. Myocardial ischemia was induced by a slipknot (4–0 silk suture) around the LAD about 2–3 mm near its origin. After 30-min ischemia, the slipknot was loosened to restore normal circulation for reperfusion ([28]). […] In the same group, heart surgery was performed without LAD artery occlusion.
The biodistribution of radiopeptide among tissues was measured by sacrifice of rats for each elected interval (30, 60, 180, and 360 min) post-injection. Various tissues, including heart, bone, kidneys, muscle, salivary glands, spleen, and intestines, were removed immediately and rinsed with saline solution to clean their residual blood. Moreover, blood samples for monitoring radioactivity were taken from the heart by a heparin-impregnated syringe after sacrificing. The percentage of injected activity per gram (%ID/g) for different organs was measured by dividing the activity of each organ per decayed total injected activity and mass of each organ. Moreover, in ischemic rats, 100 μg unlabeled peptide was co-injected with radiolabeled peptide to analyze the in vivo blocking test.

in vitro = settings: human, fresh human serum
Experimental: As an in vitro stability evaluation, radiolabeled peptides (specific activity= 18.5 MBq/nmol) were added to sodium chloride 0.9 % isotonic solution ([24]). After incubation at ambient temperature, samples were taken out at 0.06, 0.5, 1, 2, 4, and 6 hr. The radiochemical purity of the mixture was investigated by a TLC stripe. To survey biostability, 100 μl of the labeled compound was added to fresh human serum (1 ml) and incubated (37 °C, 5% CO2) at different time points (4, 30, 60, 120, 240, and 360 min). 100 μl aliquots of serum samples were then incubated with 100 μl of ethanol. Samples were centrifuged at 5000 rpm for 5 min at 37 °C and 20 µl supernatant was removed to assess the degradation of ^99mTc labeled peptide by TLC.

[1] = male, Wistar, rat, blood, iv, 20 MBq, total radioactivity
[2] = male, Wistar, rat, bone, iv, 20 MBq, total radioactivity
[3] = male, Wistar, rat, heart, iv, 20 MBq, total radioactivity
[4] = male, Wistar, rat, intestines, iv, 20 MBq, total radioactivity
[5] = male, Wistar, rat, ischemic heart / lung, iv, 20 MBq, total radioactivity
[6] = male, Wistar, rat, ischemic heart, iv, 20 MBq, total radioactivity
[7] = male, Wistar, rat, kidneys, iv, 20 MBq, total radioactivity
[8] = male, Wistar, rat, liver, iv, 20 MBq, total radioactivity
[9] = male, Wistar, rat, lung, iv, 20 MBq, total radioactivity
[10] = male, Wistar, rat, muscle, iv, 20 MBq, total radioactivity
[11] = male, Wistar, rat, salivary gland and thyroid, iv, 20 MBq, total radioactivity
[12] = male, Wistar, rat, spleen, iv, 20 MBq, total radioactivity
[13] = male, Wistar, rat, stomach, iv, 20 MBq, total radioactivity

In the case of CC(C)C[C@H](NC(=O)[C@H](Cc1ccccc1)NC(=O)[C@H](CCCCNC(=O)c1ccc(/N=N/c2ccc(N(C)C)cc2)cc1)NC(=O)[C@H](CCC(=O)O)NC(=O)[C@H](CC(C)C)NC(=O)[C@H](CCC(N)=O)NC(=O)[C@H](CCC(=O)O)NC(=O)[C@H](CCC(=O)O)NC(=O)CN1CCN(CC(=O)O)CCN(CC(=O)O)CCN(CC(=O)O)CC1)C(=O)N[C@@H](CC(N)=O)C(=O)N[C@@H](CO)C(=O)N[C@@H](CO)C(=O)O [99mTc-DOTA-(Lys-Dabcyl6,Phe7)-ARA-290, metal not drawn] ({DOTA}-EEQLEK(X1)FLNSS-OH; C-terminus assumed), the “Isch heart/Th ratio” value (in vivo; 60 min p.i., block with 100 μg unlabeled peptide, ischemic rats) is reported as 1.04, the “Isch heart/Lung ratio” value (in vivo; 180 min p.i., ischemic rats) is reported as 2.61 and the “Isch heart/Th ratio” value (in vivo; 180 min p.i., ischemic rats) is reported as 4.68. The “Isch heart/Th ratio” value (in vivo; 360 min p.i., ischemic rats) was 6.01, the tissue uptake at 0.5 h (in vivo; [1]) was 1.52 ± 0.29 %ID/g and the tissue uptake at 1 h (in vivo; [1]) was 0.96 ± 0.16 %ID/g. The tissue uptake at 3 h (in vivo; [1]) was 0.44 ± 0.28 %ID/g, the tissue uptake at 6 h (in vivo; [1]) was 0.12 ± 0.87 %ID/g and the tissue uptake at 0.5 h (in vivo; [2]) was 0.75 ± 0.41 %ID/g. It also gave a tissue uptake at 1 h (in vivo; [2]) of 0.53 ± 0.21 %ID/g, a tissue uptake at 3 h (in vivo; [2]) of 0.32 ± 0.21 %ID/g and a tissue uptake at 6 h (in vivo; [2]) of 0.16 ± 0.29 %ID/g. The tissue uptake at 0.5 h (in vivo; [3]) was 0.62 ± 0.15 %ID/g, the tissue uptake at 1 h (in vivo; [3]) was 0.31 ± 0.18 %ID/g and the tissue uptake at 3 h (in vivo; [3]) was 0.21 ± 0.32 %ID/g. For the same compound, the tissue uptake at 6 h (in vivo; [3]) was 0.14 ± 0.23 %ID/g, the tissue uptake at 0.5 h (in vivo; [4]) was 1.73 ± 0.1 %ID/g and the tissue uptake at 1 h (in vivo; [4]) was 3.22 ± 0.78 %ID/g. It also gave a tissue uptake at 3 h (in vivo; [4]) of 2.89 ± 0.08 %ID/g, a tissue uptake at 6 h (in vivo; [4]) of 2.35 ± 0.25 %ID/g and a tissue to tissue ratio at 0.5 h (in vivo; [5]) of 3.65. For the same compound, the tissue to tissue ratio at 1 h (in vivo; [5]) was 4.31, the tissue to tissue ratio at 6 h (in vivo; [5]) was 3.37 and the tissue uptake at 0.5 h (in vivo; [6]) was 3.44 ± 0.32 %ID/g. It also gave a tissue uptake at 1 h (in vivo; [6]) of 3.28 ± 0.52 %ID/g, a tissue uptake at 3 h (in vivo; [6]) of 1.36 ± 0.44 %ID/g and a tissue uptake at 6 h (in vivo; [6]) of 1.08 ± 0.94 %ID/g. The tissue uptake at 0.5 h (in vivo; [7]) was 10.6 ± 0.48 %ID/g, the tissue uptake at 1 h (in vivo; [7]) was 14.29 ± 0.01 %ID/g and the tissue uptake at 3 h (in vivo; [7]) was 8.58 ± 0.1 %ID/g. For the same compound, the tissue uptake at 6 h (in vivo; [7]) was 4.06 ± 0.43 %ID/g, the tissue uptake at 0.5 h (in vivo; [8]) was 3.55 ± 0.21 %ID/g and the tissue uptake at 1 h (in vivo; [8]) was 4.28 ± 0.15 %ID/g. The tissue uptake at 3 h (in vivo; [8]) was 3.49 ± 0.09 %ID/g, the tissue uptake at 6 h (in vivo; [8]) was 2.08 ± 0.28 %ID/g and the tissue uptake at 0.5 h (in vivo; [9]) was 0.94 ± 0.58 %ID/g. For the same compound, the tissue uptake at 1 h (in vivo; [9]) was 0.76 ± 0.77 %ID/g, the tissue uptake at 3 h (in vivo; [9]) was 0.52 ± 0.19 %ID/g and the tissue uptake at 6 h (in vivo; [9]) was 0.32 ± 0.22 %ID/g. It also gave a tissue uptake at 0.5 h (in vivo; [10]) of 0.53 ± 0.42 %ID/g, a tissue uptake at 1 h (in vivo; [10]) of 0.42 ± 0.84 %ID/g and a tissue uptake at 3 h (in vivo; [10]) of 0.25 ± 0.87 %ID/g. For the same compound, the tissue uptake at 6 h (in vivo; [10]) was 0.17 ± 0.31 %ID/g, the tissue uptake at 0.5 h (in vivo; [11]) was 0.79 ± 0.41 %ID/g and the tissue uptake at 1 h (in vivo; [11]) was 0.62 ± 0.15 %ID/g. It also gave a tissue uptake at 3 h (in vivo; [11]) of 0.29 ± 0.29 %ID/g, a tissue uptake at 6 h (in vivo; [11]) of 0.18 ± 0.81 %ID/g and a tissue uptake at 0.5 h (in vivo; [12]) of 2.56 ± 0.21 %ID/g. For the same compound, the tissue uptake at 1 h (in vivo; [12]) was 2.31 ± 0.12 %ID/g, the tissue uptake at 3 h (in vivo; [12]) was 1.16 ± 0.22 %ID/g and the tissue uptake at 6 h (in vivo; [12]) was 0.44 ± 0.29 %ID/g. The tissue uptake at 0.5 h (in vivo; [13]) was 0.88 ± 0.44 %ID/g, the tissue uptake at 1 h (in vivo; [13]) was 0.71 ± 0.31 %ID/g and the tissue uptake at 3 h (in vivo; [13]) was 0.54 ± 0.28 %ID/g. It also gave a tissue uptake at 6 h (in vivo; [13]) of 0.32 ± 0.19 %ID/g, a remaining at 4 h (in vitro) of 94% and a remaining at 6 h (in vitro) of 93%.
